Test results: PMC11178795, “Hydrogen peroxide is required for light-induced stomatal opening across different plant species” (Nature Communications, 2024)

T1: GST-bZIP30 (Arabidopsis thaliana, UniProt Q9SIG8 1-519)
T1 construct: bZIP30 transcription factor, Arabidopsis, AT2G21230; full-length coding region without stop codon; destination vector pDEST15 (N-GST); source: Escherichia coli, purified (glutathione beads); not shown: GST, N-terminal, kept
T1 sequence (looked up): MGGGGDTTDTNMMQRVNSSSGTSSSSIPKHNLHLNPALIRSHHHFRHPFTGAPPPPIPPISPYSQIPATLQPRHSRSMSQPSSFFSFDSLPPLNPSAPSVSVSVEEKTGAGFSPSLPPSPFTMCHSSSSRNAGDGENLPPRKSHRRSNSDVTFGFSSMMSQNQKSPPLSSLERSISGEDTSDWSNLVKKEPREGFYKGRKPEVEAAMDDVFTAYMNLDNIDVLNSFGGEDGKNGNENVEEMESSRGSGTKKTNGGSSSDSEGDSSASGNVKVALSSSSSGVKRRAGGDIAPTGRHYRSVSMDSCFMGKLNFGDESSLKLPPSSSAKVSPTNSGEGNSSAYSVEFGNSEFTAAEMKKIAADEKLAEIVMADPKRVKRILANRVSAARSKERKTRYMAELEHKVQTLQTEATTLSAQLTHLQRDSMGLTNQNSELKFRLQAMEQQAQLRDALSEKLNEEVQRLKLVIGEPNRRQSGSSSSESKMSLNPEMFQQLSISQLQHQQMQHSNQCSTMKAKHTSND

T2: GST-bZIP30 (Arabidopsis thaliana (Mouse-ear cress), UniProt Q9SIG8)
T2 chain: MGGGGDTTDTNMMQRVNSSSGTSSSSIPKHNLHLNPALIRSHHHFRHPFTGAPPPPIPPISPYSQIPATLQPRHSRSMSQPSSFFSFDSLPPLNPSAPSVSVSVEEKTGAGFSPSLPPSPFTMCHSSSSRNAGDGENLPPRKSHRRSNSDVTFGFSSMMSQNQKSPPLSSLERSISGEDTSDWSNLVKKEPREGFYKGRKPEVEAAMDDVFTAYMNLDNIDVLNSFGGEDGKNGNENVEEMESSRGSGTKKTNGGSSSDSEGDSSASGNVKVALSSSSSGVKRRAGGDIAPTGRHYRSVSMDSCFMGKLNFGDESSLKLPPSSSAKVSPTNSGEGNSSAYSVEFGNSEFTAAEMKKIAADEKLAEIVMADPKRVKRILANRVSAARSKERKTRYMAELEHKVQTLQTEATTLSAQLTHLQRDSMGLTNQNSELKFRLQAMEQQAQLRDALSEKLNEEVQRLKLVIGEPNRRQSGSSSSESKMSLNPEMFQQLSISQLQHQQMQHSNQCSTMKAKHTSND

T3: MBP-bZIP30 (Arabidopsis thaliana, UniProt Q9SIG8 1-519)
T3 construct: bZIP30 transcription factor, Arabidopsis, AT2G21230; full-length coding region without stop codon; destination vector pMAL2CGW (N-MBP); source: Escherichia coli, purified (amylose resin); not shown: MBP, N-terminal, kept
T3 sequence (looked up): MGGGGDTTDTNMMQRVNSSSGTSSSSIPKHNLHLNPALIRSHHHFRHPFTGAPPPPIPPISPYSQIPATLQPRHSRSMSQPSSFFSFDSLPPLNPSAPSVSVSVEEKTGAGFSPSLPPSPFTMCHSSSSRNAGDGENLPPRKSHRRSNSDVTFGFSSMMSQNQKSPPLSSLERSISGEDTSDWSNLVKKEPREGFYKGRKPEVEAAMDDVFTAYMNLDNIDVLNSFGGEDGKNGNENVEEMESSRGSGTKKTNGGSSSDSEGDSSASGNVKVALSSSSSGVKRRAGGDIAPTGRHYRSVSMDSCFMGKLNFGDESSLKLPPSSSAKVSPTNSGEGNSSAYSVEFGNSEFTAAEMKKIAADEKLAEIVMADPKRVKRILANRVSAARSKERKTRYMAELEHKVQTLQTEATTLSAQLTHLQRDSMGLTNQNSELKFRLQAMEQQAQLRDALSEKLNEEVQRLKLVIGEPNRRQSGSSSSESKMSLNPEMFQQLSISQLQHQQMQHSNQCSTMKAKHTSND


Tests used:
GST-bZIP30 [1] = biological target: T1, GST-bZIP30; assay: pull-down; 1 μg GST fusion on glutathione beads incubated with 1 µg MBP or MBP fusion; 20 mM Tris-HCl pH 7.5, 100 mM NaCl, 1 mM EDTA; with or without 1 mM H2O2; room temperature; washes with 300 mM NaCl, 0.5% Triton X-100; anti-MBP immunoblot; details: both partners purified
GST-bZIP30 [2] = biological target: T2, GST-bZIP30; assay: GST pull-down; binding enhanced by 1 mM H2O2 (oxidation of BZR1, Cys63)
MBP-bZIP30 = biological target: T3, MBP-bZIP30; assay: pull-down; 1 μg GST fusion on glutathione beads incubated with 1 µg MBP or MBP fusion; 20 mM Tris-HCl pH 7.5, 100 mM NaCl, 1 mM EDTA; with or without 1 mM H2O2; room temperature; washes with 300 mM NaCl, 0.5% Triton X-100; anti-MBP immunoblot; details: both partners purified

Row | binding result (GST-bZIP30 [1]) | binding result (GST-bZIP30 [2]) | binding result (MBP-bZIP30) | Binder
1 | binds | – | – | MBP-KIN10 (enzyme, Arabidopsis thaliana, UniProt Q38997 1-512, looked up, KIN10, catalytic subunit of SnRK1, Arabidopsis, AT3G01090; full-length coding region without stop codon; destination vector pMAL2CGW (N-MBP); source: Escherichia coli, purified (amylose resin); not shown: MBP, N-terminal, kept) MDGSGTGSRSGVESILPNYKLGRTLGIGSFGRVKIAEHALTGHKVAIKILNRRKIKNMEMEEKVRREIKILRLFMHPHIIRLYEVIETPTDIYLVMEYVNSGELFDYIVEKGRLQEDEARNFFQQIISGVEYCHRNMVVHRDLKPENLLLDSKCNVKIADFGLSNIMRDGHFLKTSCGSPNYAAPEVISGKLYAGPEVDVWSCGVILYALLCGTLPFDDENIPNLFKKIKGGIYTLPSHLSPGARDLIPRMLVVDPMKRVTIPEIRQHPWFQAHLPRYLAVPPPDTVQQAKKIDEEILQEVINMGFDRNHLIESLRNRTQNDGTVTYYLILDNRFRASSGYLGAEFQETMEGTPRMHPAESVASPVSHRLPGLMEYQGVGLRSQYPVERKWALGLQSRAHPREIMTEVLKALQDLNVCWKKIGHYNMKCRWVPNSSADGMLSNSMHDNNYFGDESSIIENEAAVKSPNVVKFEIQLYKTRDDKYLLDLQRVQGPQFLFLDLCAAFLAQLRVL
2 | binds | binds | – | MBP-BZR1 (natural protein, Arabidopsis thaliana, UniProt Q8S307 1-336, looked up, BRASSINAZOLE-RESISTANT1 (BZR1), Arabidopsis, AT1G75080; full-length coding region without stop codon; destination vector pMAL2CGW (N-MBP); source: Escherichia coli, purified (amylose resin); not shown: MBP, N-terminal, kept) MTSDGATSTSAAAAAAAAAAARRKPSWRERENNRRRERRRRAVAAKIYTGLRAQGDYNLPKHCDNNEVLKALCVEAGWVVEEDGTTYRKGCKPLPGEIAGTSSRVTPYSSQNQSPLSSAFQSPIPSYQVSPSSSSFPSPSRGEPNNNMSSTFFPFLRNGGIPSSLPSLRISNSCPVTPPVSSPTSKNPKPLPNWESIAKQSMAIAKQSMASFNYPFYAVSAPASPTHRHQFHTPATIPECDESDSSTVDSGHWISFQKFAQQQPFSASMVPTSPTFNLVKPAPQQMSPNTAAFQEIGQSSEFKFENSQVKPWEGERIHDVGMEDLELTLGNGKARG
3 | – | – | binds | GST-BZR1 (natural protein, Arabidopsis thaliana, UniProt Q8S307 1-336, looked up, BRASSINAZOLE-RESISTANT1 (BZR1), Arabidopsis, AT1G75080; full-length coding region without stop codon; destination vector pDEST15 (N-GST); source: Escherichia coli, purified (glutathione beads); not shown: GST, N-terminal, kept) MTSDGATSTSAAAAAAAAAAARRKPSWRERENNRRRERRRRAVAAKIYTGLRAQGDYNLPKHCDNNEVLKALCVEAGWVVEEDGTTYRKGCKPLPGEIAGTSSRVTPYSSQNQSPLSSAFQSPIPSYQVSPSSSSFPSPSRGEPNNNMSSTFFPFLRNGGIPSSLPSLRISNSCPVTPPVSSPTSKNPKPLPNWESIAKQSMAIAKQSMASFNYPFYAVSAPASPTHRHQFHTPATIPECDESDSSTVDSGHWISFQKFAQQQPFSASMVPTSPTFNLVKPAPQQMSPNTAAFQEIGQSSEFKFENSQVKPWEGERIHDVGMEDLELTLGNGKARG
